The source of these data is paper PMC6547619 (2019).

Sequences and labels used below:
B1: BAG3-H2L4 (antibody, V domains shown)
VH: QVQLVQSGAEVKKPGASVKVSCKASGFNIKDTYMYWVRQAPGQGLEWMGGVDPANGNTRYDPKFQGRVTLTRDTSTSTVYMELSSLRSEDTAVYYCGRDGAMDYWGQGTLVTVSS
VL: DIVMTQSPDSLAVSLGERATMSCKSSQSLLYSSNQKNYLAWHQQKPGQPPKLLIYWASTRESGVPDRFSGSGSGTDFTLTISSLQAEDLAIYYCQQYYTYPLTFGAGTKLEIK
B2: BAG3-H4L2 (antibody, V domains shown)
VH: EVQLVQSGAEVKKPGATVKISCKVSGFNIKDTYMYWVQQAPGKGLEWMGGVDPANGNTRYDPKFQGRVTITADTSTDTAYMELSSLRSEDTAVYYCARDGAMDYWGQGTLVTVSS
VL: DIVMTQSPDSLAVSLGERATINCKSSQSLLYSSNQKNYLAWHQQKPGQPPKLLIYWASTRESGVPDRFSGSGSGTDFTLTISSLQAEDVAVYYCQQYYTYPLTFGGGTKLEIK
B3: E. coli rBAG3 (Abcam) (natural protein)
chain: not shown

Among the targets are BAG3-H1L3; BAG3-H1L4; BAG3-H2L2; BAG3-H4L3; BAG3-H3L4; BAG3-H4L4; BAG3-H3L2; BAG3-H1L2; BAG3-H3L3; BAG3-H2L3.
Holding throughout (assay): SPR
The assay “E. coli rBAG3 (Abcam)” addresses B3.

Usually Kd stands for the equilibrium constant for the complex coming apart. High values mean a looser complex, low ones a tighter complex. Turning to B1, binding with E. coli rBAG3 (Abcam) was put at a Kd of 2.04 nM.
On the same count and under the same terms, the result for B2 reads 2.02 nM.
B3: the Kd is 2.83 nM in the assay with BAG3-H1L3; 2.34 nM with BAG3-H1L4; 2.63 nM with BAG3-H2L2; 1.98 nM with BAG3-H4L3; 1.7 nM in the assay with BAG3-H3L4; 1.72 nM with BAG3-H4L4. Further, the Kd in the assay with BAG3-H3L2 was 1.78 nM; with BAG3-H1L2, 2.84 nM; with BAG3-H3L3, 1.61 nM; with BAG3-H2L3, 1.98 nM.
